From the nanobody polyreactivity screen of Harvey et al. (2022)

Test: yeast display, Sf9 membrane polyspecificity reagent, FACS + sequencing; frameworks hold sequencing errors
Outline: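 Galactose induction of a Saccharomyces cerevisiae BJ5465 synthetic nanobody display library ran 36–48 hours. The cells were then stained for 1 hour at 4 °C with 10% biotinylated, detergent-solubilized Sf9 membrane reagent, pulled down on streptavidin microbeads and FACS-sorted into low and high (top ~1%) gates on expression and reagent-binding fluorescence. Labels for polyreactivity follow the gate of origin.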

Sequence | polyreactivity (PSR sort gate)
QVQLVESGGGLVQAGGSLRLSCAASGSTFYQNAMGWYRQAPGKERELVAAISSRGGSTYYADSVKGRFTISRDNAKNTVYLQMNSLKPEDTAVYYCNTGRGSEMDYWGQGTQVTVSS | high polyreactivity
QVQLVESGGGLVQAGGSLRLSCAASGSTFYQNAMGWYRQAPGKERELVAAISSSGRTYYADSVKGRFTISRDNAKNTVYLQMNSLKPEDTAVYYCAVGAYGSLYSIRVAYGSMDYWGQGTQVTVSS | high polyreactivity
QVQLVESGGGLVQAGGSLRLSCAASGSTFYQYAMGWYRQAPGKERELVAAISKSGGSTYYADSVKGRFTISRDYSKNTVYLQMNSLKPDDTSVYYCATRWIKGRKMDYWGQGTQVTVSS | high polyreactivity
QVQLVESGGGLVQAGGSLRLSCAASGSTFYQYVMGWYRQAPGKERELVAAISGSGGSTYYADSVKGRFTISRDNAKTTVYLQMNSLKPEDTAVYYCAAVGRSKRDGYWGQGTQVTVSS | high polyreactivity
QVQLVESGGGLVQAGGSLRLSCAASGSTFYRNAMGWYRQAPGKEREFVATINRGGSTYYADSVKGRFTISRDNAKNTVYLQMNSLKPEDTAVYYCNAKYKQRHGYSAVTSYATYDYWGQGTQVTVSS | high polyreactivity
QVQLVESGGGLVQAGGSLRLSCAASGSTFYRNAMGWYRQAPGKERELVATITFNGGSTYYADSVKGRFTISRDNAKNTVYLQMNSLKPEDTAVYYCAKSHAIYYWWDESWGQGTQVTVSS | low polyreactivity
QVQLVESGGGLVQAGGSLRLSCAASGSTFYRNGMGWYRQAPGKERELVAGIDRSGGSTYYADSVKGRFTISRDNAKNTVYLQMNSLKPEDTAVYYCAAQNGYYPQHDYWGQGTQVTVSS | high polyreactivity
QVQLVESGGGLVQAGGSLRLSCAASGSTFYRYAMGWYRQAPGKEREFVAAITGSGGRTYYADSVKGRFTISRDNAKNTVYLQMNSLKPEDTAVYYCAARYYYFYQISYRYDYWGQGTQVTVSS | high polyreactivity
QVQLVESGGGLVQAGGSLRLSCAASGSTFYRYAMGWYRQAPGKERELVAAIRGSGGRTYYADSVKGRFTISRDNAKNTVYLQMNSLKPEDTAVYYCAAYRGVSQKGDYWGEGTQVTVSS | high polyreactivity
QVQLVESGGGLVQAGGSLRLSCAASGSTFYRYAMGWYRQAPGKERELVAAISTRSGSTYYADSVKGRFTISRDNAKNTVYLQMNSLKPEDTAVYYCAADGHKKTARKYYYWGQGTQVTVSS | low polyreactivity
QVQLVESGGGLVQAGGSLRLSCAASGSTFYRYAMGWYRQAPGKERELVAAITSAGSTNYADSVKGRFTISRDNGNNTVYLQMYSLKPVDTAVYYCAADHGRPYFSYDYWGQGSQVTVSS | low polyreactivity
QVQLVESGGGLVQAGGSLRLSCAASGSTFYRYAMGWYRQAPGKERELVATISWTDGRTNYADSVKGRFTISRDNAKNPVYLQMNSLKPEDTAVYDCAARRYRRWYDYWGQGTQVTVSS | high polyreactivity
QVQLVESGGGLVQAGGSLRLSCAASGSTFYRYVMGWYRQAPGKERELVAAISKSDGSTYYADSVKGRFTISRDNAKNTVYLQMNSLIPEDTAVYYCAADGSKWDWWEYEYWGQGTQVTVSS | high polyreactivity
QVQLVESGGGLVQAGGSLRLSCAASGSTFYSNAMGWYRQAPGKERELVAAISSTGSSTYYADSVKGRFTISRDNAKNTVYLQMNSLKPEDTAVYYCATDYYQSYWPATYDYWGQGTQVTVSS | low polyreactivity
QVQLVESGGGLVQAGGSLRLSCAASGSTFYSNAMGWYRQAPGKERELVATISFRGGRTYYADSVKGRFTISRDNAMNTVYLQMNSLKPEDTAVYYCNAEVSGYPYTYGYRGQGTQVTVSS | low polyreactivity
QVQLVESGGGLVQAGGSLRLSCAASGSTFYSNAMGWYRQAPRKERELVASISWSSGSTYYADSVKGRFTISRDNAKNTVYLQMNSLKPEDTAVYYCATDAGGPYRFGYWGQGTQVTVSS | low polyreactivity
QVQLVESGGGLVQAGGSLRLSCAASGSTFYSNVMGWYRQAPGKEREFVAGISGSGGSTYYADSVKGRFTISRDNAKNTVYLQMNSLKPEDTAVYYCAKYRYSRYFRYDYWGQCTQVTVSS | high polyreactivity
QVQLVESGGGLVQAGGSLRLSCAASGSTFYSNVMGWYRQAPGKERELVAAISQSGGRTFYADSVKGRFTISRDNAKNTVYLQMNSLIPEDTAVYYGNYVRAQPRNPYDYWGQGTQVTVSS | high polyreactivity
QVQLVESGGGLVQAGGSLRLSCAASGSTFYSYAMGWYRQAPGKERELVAAITTSGGSTYYADSVKGRFTISRDNAKNTVYLQMNSLKPEDTAVYYCAAYDLYWYEYWGQGTQVTVSS | low polyreactivity
QVQLVESGGGLVQAGGSLRLSCAASGSTFYSYGMGWYRQAPGKERELVAAITEDGDTTYYADSVKGLYTISRDNAKNTVYLQMNSLKPEDTAVYYCAAETYYLDDYWGQATQVTVSS | high polyreactivity
QVQLVESGGGLVQAGGSLRLSCAASGSTFYSYVMGWYRQAPGKERELVAVITSGGSTTYADSVKGRFTISRDNAKNTVYLQMNSLKPEDTAVYYCAKRNYLSYRYDYWGQGTQVTVSS | low polyreactivity
QVQLVESGGGLVQAGGSLRLSCAASGSTFYTNAMGWYRQAPGKERELVAAISYGGGSTYYADSVKGRFTISRDNAKNTVYLQMHSLKPEDTAVYYCAARAPEKSWWRYRYGYWGQGTQVTVSS | high polyreactivity

Sequence | polyreactivity (PSR sort gate)
QVQLVESGGGLVQAGGSLRLSCAASGSTFYTNAMGWYRQAPGKEREMVASITGGGSTYYADSVKGRFTISRDNAKNTVYLQMNSLKPEDTAVYYCDADNVGGGWEFDSWGQGTQVTVSS | low polyreactivity
QVQLVESGGGLVQAGGSLRLSCAASGSTFYTYTMGWYRQAPGKERALVAAISSSGGDTYYADSVKGRFTISRDNAKNTVYLQMNSLKPEDTAVYYCAALGAFPSLEFDYWGQGTQVTVSS | low polyreactivity
QVQLVESGGGLVQAGGSLRLSCAASGSTFYTYVMGWYRQAPGKERELVAAISSGGGNTYYADSVKGRFTISRDNAKYTVYLQMNSLKPEDTAVYYCAASHTSYYLRYGYWGQGTQVTVSS | high polyreactivity
QVQLVESGGGLVQAGGSLRLSCAASGSTFYVNAMGWYRPAPGKERELVAAITKSGGNTYYADSVKGRFTISRDNAKNTVYLQMNSLKPEDTAVYYCAAYKRYSSLTGYESWGQGTQVTVSS | high polyreactivity
QVQLVESGGGLVQAGGSLRLSCAASGSTFYVNAMGWYRQAPGKEREFVAAISWSGGSTYYADSVKGRFTISRDNAKNTVYLQMNSLKPEDTAVYYCAADRVRKDGVLFDYWGQGTQGTVSS | high polyreactivity
QVQLVESGGGLVQAGGSLRLSCAASGSTFYVNAMGWYRQAPGKERELVAAINSGGRTYYADSVKGRFTISRDNAKNTVYLQMNSLKPEDTAVYYCAAEVSYYLNEFDYWGQGTQVTVSS | low polyreactivity
QVQLVESGGGLVQAGGSLRLSCAASGSTFYVYAIGWYRHAPGKERELVADITYSDGGTFYADSVKGRFTISRDNAKTTVYLQMNSLKPEDTAGYYCATSYLWNYRGDIFDYWGQGTQVTVSS | high polyreactivity
QVQLVESGGGLVQAGGSLRLSCAASGSTFYVYAMGWYRQAPGKERELVAAINFNGGGTYYADSVKGRFTISRDNAMNTVYLQMNSLKPEDTAFYYCNAEDDYTYDRSFGGYKYDYWGQGTQVTVSS | low polyreactivity
QVQLVESGGGLVQAGGSLRLSCAASGSTFYVYAMGWYRQAPGKERELVATISSGGITNYADSVKGRFTISRDNAMNTVYLQMNSLKPEDTAVYYCNAKKAYYGRGMNYWGQGTQVTVSS | low polyreactivity
QVQLVESGGGLVQAGGSLRLSCAASGSTFYVYAMGWYRQAPGKERELVAVIRYRGDRTYYADSVKGRFTISRDNAKNTVYLQMNSLKPEDTAVYYCAKEGFYKYYWGQGTQVTVSS | high polyreactivity
QVQLVESGGGLVQAGGSLRLSCAASGSTFYVYAMGWYRQAPGTERELVAAIDYSDGSTYYADSVKGRFTISRDNAKNTVYLQMNSRKPEDTAVYYCAADTVSWFEYYYWGQGTQVTVSS | high polyreactivity
QVQLVESGGGLVQAGGSLRLSCAASGSTFYVYVMGGYRQAPGKERELVAAITSSGDITYYADSVKGRFTISRYNAKITVYLQMNSLIPEETAVYYCAASPFRRRYNGENDYWGQGTQVTGSS | high polyreactivity
QVQLVESGGGLVQAGGSLRLSCAASGSTFYWYAMGWYRPAPGKERELVAAISSGADTSYADSVKGRFTISRDNAKNTVYLQMNSLKPEDTAVYYCARRYRARGSMYYWGQGTKVTVSS | high polyreactivity
QVQLVESGGGLVQAGGSLRLSCAASGSTFYWYTMGWYRQAPGKEKELVARISSSGSTNYADSVKGRFTISRDNAKNTVYLQMNSLKPEDTAVYYCNKDWIYRGYDYWGQGTQVTVSS | high polyreactivity
QVQLVESGGGLVQAGGSLRLSCAASGSTFYYMGWSRQAPGKERELVAAITQSGGSTYYADSVKGRFTISRDNAKNTVYLQMNSLKPEDTAVYYCAARYASPRYKSKMDYWGQGTQVTVSS | high polyreactivity
QVQLVESGGGLVQAGGSLRLSCAASGSTFYYNAMGWYRQAPGKERELVAAITFTGGSTYADSVKGRFTISRDNAKNTVYLQLNSLKPEDTAVYYCAATIQGHDYLGTGYDYWGQGTQVTVSS | low polyreactivity
QVQLVESGGGLVQAGGSLRLSCAASGSTFYYNAMGWYRTAPGKERELVAVIDGSGGFTYYADSVKGRFTISRDNAKNTVYLQMNSLKPEDTAVYYCNADLVYNTFIFSGGDEYDYWGQGTQVTVSS | high polyreactivity
QVQLVESGGGLVQAGGSLRLSCAASGSTFYYNTMGWYRQAPGKERELVAAISSGGSTNYADSVKGRFTISRDNAKNTVYLQMNSLKPEDTAVYYCAKRRGGALYAYRYYYWGQGTQVTVSS | high polyreactivity
QVQLVESGGGLVQAGGSLRLSCAASGSTFYYNTMGWYRQAPGKERELVAAISWRGGSTYYADSVKGRFTISRDNAKNTVYLLMNSLKPVDTAVYYCAAGWYPRSVRPFESFVGLDYWGQGTQVTVSS | high polyreactivity
QVQLVESGGGLVQAGGSLRLSCAASGSTFYYYAMGCYRQAPGKERELVASITTGGGSTYYADSVKGRFTISRDNAKNTVYLQLNSLKPEDTAVYYCGAALAYYYWWYDYWGQCTQVTVSS | low polyreactivity
QVQLVESGGGLVQAGGSLRLSCAASGSTFYYYAMGWYRPAPGKERELVAAISSSGGITYYADSVKGRFTISRDNAKNTVYLQMNSLKPEDTAVYYCAADVIVFYYGPNYWGDIGYGYWGQGTQVTVSS | low polyreactivity
